Test [1] addresses Venus-iLID-CaaX. As to the kind of experiment: light-induced recruitment of a cytosolic prey to a plasma membrane bait (live-cell spinning disk microscopy); HeLa cells; 1 pulse of 440 nm laser light at 20% for 1 s; change in cytosolic intensity of the prey in percent, measured 20 s after stimulation.
Test [2] has as its target Lck-mTurquoise2-iLID. The description is as above.
Test [3] deals with Venus-iLID-CaaX. As to the kind of experiment: light-induced recruitment of a cytosolic prey to a plasma membrane bait (live-cell confocal microscopy); HeLa cells, 37°C; photo-activation with 488 nm laser light (1% intensity) every 2.5 s for 2 min; normalized membrane to cytosol intensity ratio of the prey; t½ ON and OFF from a mono-exponential fit to the mean.

The substance “SspB-mScarlet-I (from UniProt P0AFZ3 1-165) (natural protein)” came in with a mean change in cytosolic intensity (recruitment efficiency) in test [1] of 25.5%. Further, the median change in cytosolic intensity (recruitment efficiency) in test [2] stood at 36.7%. Also, in test [3], the t½ OFF of recruitment (after 488 nm light) came to 20.3 s and the t½ ON of recruitment (488 nm light) stood at 5.14 s.

(Values after publication PMC10393062.)
